Experimental findings from patent US20220056119A1 (Regeneron, published 2022) are described below.

The chains are these.
T1: Activin A (human, UniProt P08476 311-426)
T1 sequence: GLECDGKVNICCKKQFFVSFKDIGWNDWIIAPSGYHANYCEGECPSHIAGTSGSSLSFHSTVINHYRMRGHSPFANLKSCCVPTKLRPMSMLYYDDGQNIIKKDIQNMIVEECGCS

B1: H4H10448P2 (antibody, human IgG4, V domains shown)
VH: QVQLQESGPGLVKPSETLSLTCTVSGGTFSSHFWSWIRQPPGKGLEWIGYIFYTGGTNHNPSLKSRVTISIDTSKNQFSLKLTSVTAADTAVYYCARARSGITFGGVIVPGSFDIWGQGTMVTVSS
VL: not shown
B2: H4H10445P2 (antibody, human IgG4, V domains shown)
VH: QVQLQESGPGLVKPSETLSLICSVSGGSFSSHFWSWIRQPPGKGLEWIGYVLYSGGTNYNPSLKSRVTISVDTSKNQFFLKLSSVTAADTADYYCARAISGITFGGIIVPGSFDIWGQGTMVTVSS
VL: not shown
B3: H4H10447P2 (antibody, human IgG4, V domains shown)
VH: QVQLQESGPGLVKPSETLSLTCSVSGGSFSSHFWSWIRQPPGKGLEWIGYIHYSGGTNYNPSLKSRVTISVDTSKNQFSLKLTSVTAADTADYYCARAISGITFGGMIVPGSFDVWGEGTMVTVSS
VL: not shown
B4: H4H10438P2 (antibody, human IgG4, V domains shown)
VH: EVQLVESGGGLVQPGRSLRLSCAASGFTFDDNAMHWVRQPPGKGLEWVSGISWNSGSIGYADSVKGRFTISRDNAKNSLYLQMNSLRAEDTALYYCAKDINDILTGYPLFDYWGQGTLVTVSS
VL: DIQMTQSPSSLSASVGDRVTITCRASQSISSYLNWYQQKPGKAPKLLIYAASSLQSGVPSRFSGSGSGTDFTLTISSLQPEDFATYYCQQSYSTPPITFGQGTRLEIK
B5: H2aM10965N (antibody, mouse IgG2a, V domains shown)
VH: RVQLVQSGSEVKKPGASVKVSCRASGYIFTSYDINWVRQATGQGLEWMGWMNPNNGNTAYTQKFQGRVTMTRNTSISTAYMELSSLRSEDTAVYYCARKGLLWFGKLLGYGMDVWGQGTTVTVSS
VL: not shown
B6: H4H10437P2 (antibody, human IgG4, V domains shown)
VH: EVQLVESGGGLVQPGRSLRLSCAASGFTFDDYAMHWVRQAPGKGLEWVSGISWNSGSIGYADSVKGRFTISRDNAKNSLYLQMNSLRAEDTALYYCAKDIMGNWDYFYGMDVWGQGTTVTVSS
VL: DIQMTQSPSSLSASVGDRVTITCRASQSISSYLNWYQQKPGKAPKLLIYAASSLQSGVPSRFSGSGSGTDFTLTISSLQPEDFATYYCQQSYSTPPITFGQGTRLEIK
B7: H4H10452P2 (antibody, human IgG4, V domains shown)
VH: QVQLQESGPGLVKPSETLSLTCTVSGGSFSSHFWNWIRQSPGRGLEWIGYIYYSGGTNYNPSFKSRVTMSVDTSKNQFSLKLSSVTAADTAVFYCARARSGITFGGVLVPGSFDIWGQGTMVTVSS
VL: not shown
B8: H4H10426P (antibody, human IgG4, V domains shown)
VH: EVQLVESGGNLVQSGRSLRLSCTASGFAFDDFAMHWVRQVPGKGLEWVSGISWNSDTIGYADSVKGRFTISRDNAQNSLFLQMDSLRAEDTALYYCVKDMVRGLIGYYYYGMDVWGQGTTVTVSS
VL: EIVLTQSPAILSLSPGERAILSCRASQSIYTYLSWYQQTPGRAPRLLIYETSSRATGIPARFIGSGSGTDFTLTISSLEPEDFAFYYCQHRSDWPPTFGQGTKLEIK
B9: H4H10424P (antibody, human IgG4, V domains shown)
VH: QVQLVESGGGVVQPGRSLRLSCAASGFTFSSYGMHWVRQAPGKGLEWVAVIWYDGSNKYNADSVKGRFTISRDNSKNTVYLQMNSLRAEDTAVYYCARARNYDILTGYYNLGMDVWGQGTTVTVSS
VL: DIQMTQSPSSLSASVGDRVTITCRASQGIRNDLGWYQQKPGKAPKRLIYAASSLQSGVPSRFSGSGSGTEFTLTISSLQPEDFATYYCLQHNSYPYTFGQGTKLEIK

The assay deals with T1, Activin A. Nature of the assay: cell-based or functional assay.
As to B1, the “IC50, inhibition of 100 pM Activin A in A204/CAGAx12-Luc luciferase bioassay” value worked out at 4.6e-11 M.

For B2, the “IC50, inhibition of 100 pM Activin A in A204/CAGAx12-Luc luciferase bioassay” value is 5.3e-11 M.

Turning to B3, the “IC50, inhibition of 100 pM Activin A in A204/CAGAx12-Luc luciferase bioassay” value was found to be 7.8e-11 M.

Consider B4, for which the “IC50, inhibition of 100 pM Activin A in A204/CAGAx12-Luc luciferase bioassay” value came to 2.6e-10 M.

For the molecule B5, the “IC50, inhibition of 100 pM Activin A in A204/CAGAx12-Luc luciferase bioassay” value was determined as 3.5e-09 M.

Turning to B6, the “IC50, inhibition of 100 pM Activin A in A204/CAGAx12-Luc luciferase bioassay” value was found to be 2.9e-10 M.

As to B7, the “IC50, inhibition of 100 pM Activin A in A204/CAGAx12-Luc luciferase bioassay” value is 5.8e-11 M.

As for B8, the “IC50, inhibition of 100 pM Activin A in A204/CAGAx12-Luc luciferase bioassay” value turned out to be 2.3e-10 M.

Consider B9, for which the “IC50, inhibition of 100 pM Activin A in A204/CAGAx12-Luc luciferase bioassay” value came to 7.6e-10 M.
